Measurements published in paper doi:10.1101/2025.08.21.671500.

T1: FOXA1 forkhead domain;FOXA2 forkhead domain, Twin-Strep-tagged (human?;human?, UniProt P55317;Q9Y261 169-260;159-252, |)
T1 sequence 1: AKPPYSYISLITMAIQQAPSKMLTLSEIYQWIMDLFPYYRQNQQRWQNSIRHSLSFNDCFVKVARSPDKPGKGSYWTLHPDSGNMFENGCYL
T1 sequence 2: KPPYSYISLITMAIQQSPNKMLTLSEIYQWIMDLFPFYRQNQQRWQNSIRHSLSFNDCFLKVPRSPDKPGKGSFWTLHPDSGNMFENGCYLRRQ

T2: FOXA1 forkhead domain (UniProt P55317 169-260)
T2 sequence: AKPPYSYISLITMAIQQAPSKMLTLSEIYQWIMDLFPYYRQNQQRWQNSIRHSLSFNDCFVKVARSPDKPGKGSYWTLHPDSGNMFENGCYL

T3: FOXA2 forkhead domain (UniProt Q9Y261 159-252)
T3 sequence: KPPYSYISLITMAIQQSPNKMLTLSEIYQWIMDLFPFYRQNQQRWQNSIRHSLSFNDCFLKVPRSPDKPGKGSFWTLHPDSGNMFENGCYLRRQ


Assays:
[1] = molecular target: T1, FOXA1 forkhead domain;FOXA2 forkhead …; test: EMSA
[2] = molecular target: T2, FOXA1 forkhead domain; test: EMSA
[3] = molecular target: T3, FOXA2 forkhead domain; test: EMSA
[4] = molecular target: T3, FOXA2 forkhead domain; test: BLI
[5] = molecular target: T2, FOXA1 forkhead domain; test: BLI

| Binder | binding result [1] | binding result [2] | binding result [3] | binding result [4] | binding result [5] |
| --- | --- | --- | --- | --- | --- |
| 2C (two canonical motifs separated by 3 nt) (dsDNA) DNA 1: CCGCCGTATTTACTGAGTAAATAGCCGCC DNA 2: GGCGGCTATTTACTCAGTAAATACGGCGG | binds | binds | binds |  |  |
| PAL (extended palindromic motif) (dsDNA) DNA 1: CCGCCGTAAGTAAATATTTACTTAGCCGCC DNA 2: GGCGGCTAAGTAAATATTTACTTACGGCGG | binds | binds | binds |  |  |
| BLI 40-mer (dsDNA) DNA 1: GTGTCTCCTGCTCTGTCAGCAGGGCACTGTACTTGCTGAT DNA 2: ATCAGCAAGTACAGTGCCCTGCTGACAGAGCAGGAGACAC |  |  |  | binds | binds |
| C (canonical FOXA motif) (dsDNA) DNA 1: CCGCCGCCGTGTTTACTTTGCCGCCGCC DNA 2: GGCGGCGGCAAAGTAAACACGGCGGCGG |  |  | binds |  |  |
